The Ki is a measure of affinity in units of concentration, obtained from inhibition or displacement. A higher Ki goes with a looser hold on the target.

Positions of bridges follow the written chain, without caps; N, C: chain ends. No end group written: not given here.

The values that follow come from PMC3206593 (Bioorganic & medicinal chemistry, 2011).

In test [1] the target is T1, Aurora A (Homo sapiens, UniProt O14965).
T1 sequence (O14965 1-403): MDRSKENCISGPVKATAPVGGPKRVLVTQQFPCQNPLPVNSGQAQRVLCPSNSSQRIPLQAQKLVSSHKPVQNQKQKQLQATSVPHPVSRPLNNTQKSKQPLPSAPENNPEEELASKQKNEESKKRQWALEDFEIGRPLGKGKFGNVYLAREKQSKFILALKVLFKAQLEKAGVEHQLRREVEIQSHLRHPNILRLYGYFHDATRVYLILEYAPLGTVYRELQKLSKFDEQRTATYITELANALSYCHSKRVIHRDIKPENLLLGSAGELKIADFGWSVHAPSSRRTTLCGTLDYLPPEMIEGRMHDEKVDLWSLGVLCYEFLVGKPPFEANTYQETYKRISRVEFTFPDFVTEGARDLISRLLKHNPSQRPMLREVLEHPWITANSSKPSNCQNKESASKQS
The following applies: at a concentration of 100 μM; peptide appended to the helices; cited from earlier work.

Test [2] has as its target T2, (CTRPWWLC)G cyclic peptide (disulfide 1-8 (inferred)).
T2 chain: CTRPWWLCG-NH2
The test is described as follows: radiometric kinase kinetic assay.

Regarding GRRVVVSFAWD, the “inhibition of Aurora A” value in test [1] is 35%.

B1: Aurora kinase A (protein)
chain: MDRSKENCISGPVKATAPVGGPKRVLVTQQFPCQNPLPVNSGQAQRVLCPSNSSQRIPLQAQKLVSSHKPVQNQKQKQLQATSVPHPVSRPLNNTQKSKQPLPSAPENNPEEELASKQKNEESKKRQWALEDFEIGRPLGKGKFGNVYLAREKQSKFILALKVLFKAQLEKAGVEHQLRREVEIQSHLRHPNILRLYGYFHDATRVYLILEYAPLGTVYRELQKLSKFDEQRTATYITELANALSYCHSKRVIHRDIKPENLLLGSAGELKIADFGWSVHAPSSRRTTLCGTLDYLPPEMIEGRMHDEKVDLWSLGVLCYEFLVGKPPFEANTYQETYKRISRVEFTFPDFVTEGARDLISRLLKHNPSQRPMLREVLEHPWITANSSKPSNCQNKESASKQS
Regarding B1, in test [2], affinity was put at a Ki of 31 µM.
